A short description of data set [1]: Sodium fluorescein leakage into CSF after BCCAO (BBB integrity). The class given is in vivo, mouse. The conditions noted are these: individual animals; for CSF/blood fluorescent: 60 min after injection. The method, then: WT and Ager^−/− male mice (8 to 12-weeks-old and weighing 20–30 g) were used for the experiments. The animals were anaesthetised with 2.0% halothane and maintained with 0.5% halothane through a facemask. Brain ischaemia was induced via bilateral occlusion of the common carotid arteries (BCCAO) for 15 min using microvascular clips as described previously. Laser-Doppler flowmetry was used to measure cerebral cortical microperfusion (3 mm lateral to bregma). […] Rectal temperature was maintained at 36.5–37.5 °C by using a heat lamp and a blanket until the mice were completely alert. The control animals underwent a sham-operation that was identical with the exception of the occlusion. To quantify accumulative BBB leakages, 200 µl of sodium fluorescein (Sigma-Aldrich) at a concentration of 6 mg/ml in PBS was injected via the venous sinus of retro-orbital in the mice. […] Sixty minutes later, the CSF and blood were collected according to the protocol for sampling of CSF and blood from mice[80]. The fluorescence of CSF and serum were measured at 460 nm at an excitation wavelength of 355 nm by using a Fluoroscan Ascent FL luminometer (Labsystems. Wilmington, DE, USA). Results are presented as relative fluorescence units (CSF value/serum value) (%).

The target in another data set is human esRAGE (Homo sapiens, UniProt Q15109). The experiment in a line: Plate competition assay of oxytocin-RAGE complex formation by RAGE ligands and RAGE domains. The data set is classed as binding. Conditions: esRAGE preincubated with ligand, added 30 min to wells with immobilised oxytocin, HRP-anti-RAGE, n = 3. The method, then: RAGE ligands were S100B (Sigma-Aldrich, St. Louis, MO, USA)[30], AGE-BSA (glyceraldehyde-derived AGE-BSA)[27],[32],[41], amyloid β 1-42 (Sigma-Aldrich), and high-mobility group box 1 (HMGB1, Sigma-Aldrich)[42].
Supplementary Figure 3. (a–d) Plate competition assays. Preincubation mixtures of esRAGE (1 mg/ml) with indicated concentrations of S100B (a),AGE-BSA (AGE) (b), amyloid b (c),or high-mobility group box 1 (HMGB1) (d) were added into wells for 30 min on which […]
The formation of oxytocin–RAGE complexes was detected with horseradish peroxidase (HRP)-conjugated anti-RAGE antibody (n = 3). All […]
and C2 domains (30 mg/ml) were used with this system (n = 3). The formation of oxytocin– RAGE complexes was detected with horseradish peroxidase (HRP)-conjugated anti-RAGE antibody (n = 3). *P < 0.05. Allgraphs show mean ± SEM.
(1 picture or pasted object on this page, not shown here)

In data set [2] the target is human endogenous soluble RAGE (esRAGE), recombinant (human). The experiment in a line: SPR; human esRAGE amine-coupled to a CM5 chip (~5000 RU), oxytocin flowed over; BIAcore 2000; 10 mM HEPES pH 7.4, 0.15 M NaCl, 3 mM EDTA, 0.005% surfactant P-20; 25 °C, 20 μl/min; apparent KD. On the technique in general: SPR reads the build-up and loss of mass on a sensor chip optically.

A short description of data set [3]: [13C,15N]oxytocin in CSF after subcutaneous injection, LC-MS/MS. The class given is in vivo, mouse. The method, then: (§1) High MW proteins in diluted mouse plasma were precipitated with 2% TCA; supernatants obtained after centrifugation were analysed by LC-MS/MS. Mouse CSF samples diluted 1:5 with PBS (25 μl) were analysed directly. […] The eluting 1.0 ml fractions (Fig. 1h) were analysed by LC-MS/MS. The 25 μl samples were separated using a ZORBAX 300SB-C8 column (2.1 × 150 mm, 5 μm; CA, USA) eluted with a linear gradient of 0.1% (v/v) formic acid and acetonitrile (0–30%) at 0.3 ml/min and 50 °C.

Another data set concerns the target T1, soluble RAGE (Homo sapiens, UniProt Q15109).
T1 construct: from tissue; host or cells: human serum
Put plainly: Gel permeation, anti-RAGE and esRAGE affinity chromatography of human serum with EIA and LC-MS/MS. The class given is binding. The conditions noted are these: 50 ml human serum. The protocol: Polypeptides were separated using a Superdex 75 pg HiLoad 26/600 column (GE Healthcare Japan, Tokyo) eluted at 1.0 ml/min with 5 mM ammonium acetate pH 7.8. […] Anti-RAGE monoclonal antibody (1.0 mg) or purified esRAGE (0.5 mg) were coupled to NHS-activated HiTrap (GE Healthcare). Sera samples (50 ml) from healthy consenting adults were applied to the HiTrap-anti-RAGE column equilibrated with 50 mM Tris–HCl (pH 7.4) and 0.15 M NaCl. Alternatively, the low molecular weight (<3000, Amicon Ultracel3K) fraction of human serum (50 ml) was applied to the HiTrap-esRAGE column previously equilibrated with phosphate-buffered saline (PBS). After washing the bound proteins were eluted with 100 mM glycine-HCl buffer (pH 2.5) for HiTrap-anti-RAGE or 10 mM Tris–HCl (pH 7.4) and 2.0 M NaCl for HiTrap-esRAGE and the eluates were analysed by EIA or LC-MS/MS and Western blotting.
as §1
Supplementary Figure 1. […]

Data set [4] concerns monkey brain capillary endothelial cells. The experiment in a line: In vitro blood-brain barrier (BBB) model (MBT-24H), transport between luminal and abluminal chambers, control or RAGE shRNA knockdown. Conditions: 1.0 ng/ml in luminal chamber, 3 h, control vs RAGE knockdown, ELISA, n = 4. The protocol: EC, monkey brain capillary endothelial cells; Peri, rat brain pericytes; Astro, rat astrocytes. […] The endothelial cells used in the upper chamber in a were treated with RAGE shRNA (knockdown, KD) or control (C or CNT) vectors to assess the effects of RAGE knockdown. […] Values are mean ± SEM
For the in vitro BBB model (MBT-24H, PharmaCo-Cell Co., Nagasaki, Japan), rat brain pericytes (1.5 × 10^4 cells/cm^2) and rat astrocytes (1.5 × 10^4 cells/cm^2) were seeded on the bottom of the collagen-coated polyester membranes of Transwell inserts (Corning Life Sciences, MA, USA). After 16 h the cells firmly adherent, monkey brain vascular endothelial cells (1.5 × 10^5 cells/cm^2) were then seeded on the upper side of the inserts in 24-well culture plates. The in vitro BBB models were established within 4 days of seeding the cells according to the manufacturer’s instructions. Trans-endothelial electrical resistance (TEER), which primarily reflects the flux of sodium ions through the cell layers in the culture conditions, was measured with an epithelial-volt-ohm metre and an Endohm-6 chamber electrodes (World Precision Instruments, Sarasota, FL, USA). The TEERs of the coated, cell-free filters were subtracted from the measured TEER values of the models and shown as Ω cm^2. The apparent permeability constants (Papp) between luminal and abluminal chambers were calculated from the distribution ratios. Endothelial expression was silenced using RAGE shRNA and the pSilencer 3.0-H1 vector (Ambion, Austin, TX, USA)[41]. […]
A general note: An ELISA detects its analyte on a solid surface through an enzyme-linked reagent.

Another data set concerns the target oxytocin receptor (UniProt P30559). The conditions noted are these: cited from earlier work.
For data set [5], the target named is oxytocin receptor (high affinity form) (UniProt P30559). The conditions noted are these: cited from earlier work.

pKd: −log10 of the molar value. “And” between values parts separate entries of the source, which are not always exact repeats. Equal values may be shown once.

Chain of human esRAGE (Q15109 23-347 isoform Q15109-3 limits assumed): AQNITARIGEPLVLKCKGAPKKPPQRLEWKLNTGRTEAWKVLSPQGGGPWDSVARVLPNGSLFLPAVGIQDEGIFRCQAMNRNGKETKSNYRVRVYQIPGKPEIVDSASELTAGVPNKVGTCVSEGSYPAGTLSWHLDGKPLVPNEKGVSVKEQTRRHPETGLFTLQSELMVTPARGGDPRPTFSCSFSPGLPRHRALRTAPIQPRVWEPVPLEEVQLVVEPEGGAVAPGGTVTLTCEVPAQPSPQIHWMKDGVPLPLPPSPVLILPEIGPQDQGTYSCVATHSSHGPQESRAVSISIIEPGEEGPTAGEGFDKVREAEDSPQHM
Chain of oxytocin (P01178 whole entry, looked up): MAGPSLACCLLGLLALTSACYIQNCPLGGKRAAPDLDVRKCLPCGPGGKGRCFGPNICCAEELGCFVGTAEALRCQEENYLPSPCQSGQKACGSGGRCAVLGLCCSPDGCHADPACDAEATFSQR
Chain of oxytocin receptor (P30559 whole entry): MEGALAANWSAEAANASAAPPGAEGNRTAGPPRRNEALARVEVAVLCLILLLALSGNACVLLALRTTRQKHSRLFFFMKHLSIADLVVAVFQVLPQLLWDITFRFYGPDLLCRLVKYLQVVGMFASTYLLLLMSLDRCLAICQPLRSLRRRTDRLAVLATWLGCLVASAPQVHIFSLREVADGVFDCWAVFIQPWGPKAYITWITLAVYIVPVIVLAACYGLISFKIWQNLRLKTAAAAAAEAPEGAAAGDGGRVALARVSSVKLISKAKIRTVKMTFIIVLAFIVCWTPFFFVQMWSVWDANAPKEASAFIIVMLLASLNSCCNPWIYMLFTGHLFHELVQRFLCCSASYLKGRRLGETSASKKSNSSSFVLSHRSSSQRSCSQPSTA
Chain of oxytocin receptor (high affinity form) (P30559 whole entry): as above
Chain of Oxytocin (synthetic) (P01178 whole entry, looked up): as the sequence (P01178 whole entry, looked up) above
T1 sequence (Q15109 23-347 isoform Q15109-3): as the sequence (Q15109 23-347 isoform Q15109-3 limits assumed) above

With `O=C1OC2(c3ccc(O)cc3Oc3cc(O)ccc32)c2ccccc21` [fluorescein, sodium fluorescein], the CSF/blood fluorescent is 0.0316% and 0.02179% and 0.01832% and 0.02493% in data set [1] (Ager-/- BCCAO); 0.03456% and 0.01791% and 0.02565% in data set [1] (Ager-/- Sham); 0.02918% and 0.03954% and 0.02602% in data set [1] (WT BCCAO). For the same molecule, the “CSF/blood fluorescent (relative fluorescence units, CSF value/serum value)” value in data set [1] (WT Sham, 200 μl of 6 mg/ml via retro-orbital venous sinus, 60 min) was 0.03234% and 0.009373% and 0.03651% and 0.03497% and 0.03069% and 0.01619%.
For “AGEs: glyceraldehyde-derived AGE-BSA, RAGE ligand”, in the data set with human esRAGE, the “inhibition of oxytocin binding to soluble RAGE by RAGE ligand” value (“inhibition of oxytocin binding” for short) is “weakly or non-specifically inhibited”.
Still for that read-out and setting: to “HMGB1: high-mobility group box 1, RAGE ligand (Sigma-Aldrich)” belongs “weakly or non-specifically inhibited”.
On to “Oxytocin (synthetic) (from UniProt P01178 20-28) (peptide)”, for which, in data set [2], the pKd was 6.75.
As to “S100B: RAGE ligand S100B (Sigma-Aldrich)”, in the data set with human esRAGE, the “inhibition of oxytocin binding” value was “weakly or non-specifically inhibited”.
[^13C,^15N]oxytocin: the “[13C,15N]oxytocin in CSF of Ager-/- male mice” value in data set [3] is “undetectable”.
Take amyloid β 1-42: the “inhibition of oxytocin binding” value in the data set with human esRAGE was “weakly or non-specifically inhibited”.
With arginine-vasopressin, in the data set with soluble RAGE, the “identification in material eluted from immobilised esRAGE (human serum)” value is recorded as “did not identify”. The “transport by RAGE in the in vitro BBB assay system” value in data set [4] is “did not transport”.
As to oxytocin (from UniProt P01178), the pKd with oxytocin receptor was 7.00; in data set [5], 9.00.

One may read the pKd as the negative decadic logarithm of the Kd, by convention in mol/L.

The record behind these values is publication PMC6389896 (Communications Biology, 2019).
